# Measurements taken from the DeepSol protein solubility set.
# Experiment: soluble on expression in E. coli; label from the status in PepcDB or PDB records
row,Sequence,soluble on expression in E. coli
1,GMSISSKAKEILTQFTREVWSEGNIEASDKYIAPKYTVLHDPGDPWEGRELDVAGYKERVKTLRAAFPDQCFDIQGLFADGDAVVMTWLWTATHKEDIPGFPSTGKQIKMSGATVYYFDGNRLTGHWQITDRLGVYQQLRQAAAGA,soluble
2,GMSLPHLSSGEVASVLPLGKQLTQTPSAALFKEHRLEVMRMVLPAGKQVGSHSVAGPSTIQCLEGEVEIGVDGAQRRLHQGDLLYLGAGAAHDVNAITNTSLLVTVVLVDRGGS,soluble
3,GMSMPNHPNLTTADAKKILNKFNCLDIAPILKPSEKESVRRALILITKLSDYQILGICADTADEGLLAMKTYSHALGYEVPIDLPVVEGPVYIKLNGKNGLCYLDSYAGHHRGVLVSCQSYYEGGINEMYGHLPLDLFV,soluble
4,GMSSMQHIVELTSDLIRFPSMHSRPEQISRCAGFIMDWCAQNGIHAERMDHDGIPSVMVLPEKGRAGLLLMAHIDVVDAEDDLFVPRVENDRLYGRGANDDKYAVALGLVMFRDRLNALKAAGRSQKDMALGLLITGDEEIGGMNGAAKALPLIRADYVVALDGGNPQQVITKEKGIIDIKLTCTGKAAHGARPWMGVNAVDLLMEDYTRLKTLFAEENEDHWHRTVNLGRIRAGESTNKVPDVAEGWFNIRVTEHDDPGALIDKIRKTVSGTVSIVRTVPVFLAADSPYTERLLALSGATAGKAHGASDARYLGENGLTGVVWGAEGFNTLHSRDECLHIPSLQSIYDPLMQLAREMEEHAAV,soluble
5,GMSSTSSKVVLHPTMLNCMRGLHKKAVLPEPVLDRGIELARAFVGGRRARGQRVERQPDVAAACLMIAAEEAQQPLPLAEVRCLDSSLGDVELRRADIVRELHLEDSERRLRDTFADNLLVKYILKLGLQVSLYLPHCKRLLTALGRVEALAGLTVADRVTTALLLARTAQTLSWEQGTHISKGKECDLGMEAIYANFSSKAHLEVTKVNKIMHLAVDVLPLIQAAFQDCGEPTAGKRKVDKNSEPEASGGTKRVKREET,soluble
6,GMTILSDVKALGQQIWLDNLSRSLVQSGELAQMLKQGVCGVTSNPAIFQKAFAGDALYADEVAALKRQNLSPKQRYETMAVADVRAACDVCLAEHESTGGKTGFVSLEVSPELAKDAQGTVEEARRLHAAIARKNAMIKVPATDAGIDALETLVSDGISVNLTLLFSRAQTLKAYAAYARGIAKRLAAGQSVAHIQVVASFFISRVDSALDATLPDRLKGKTAIALAKAAYQDWEQYFTAPEFAALEAQGANRVQLLWASTGVKNPAYPDTLYVDSLIGVHTVNTVPDATLKAFIDHGTAKATLTESADEARARLAEIAALGIDVETLAARLQEDGLKQFEEAFEKLLAPLV,soluble
7,GNQRKVSVVGAQSTMDVKDIKMPAASLSSAISGRIAGVVAVQRSGEPGHDESDIWIRGLSSLLGQSSSPLVLVDGVERSFNNIDPEDIESFTVLKDASATAVYGVRGANGVVIVKTKPGKVG,soluble
8,GNSPQEEVELKKLKHLEKSVEKIADQLEELNKELTGIQQGFLPKDLQAEALCKLDRRVKATIEQFMKILEEIDTLILPENFKDSRLKRKGLVKKVQAFLAECDTVEQNICQETE,soluble
9,GPFCGRARVHTDFTPSPYDTDSLKIKKGDIIDIICKTPMGMWTGMLNNKVGNFKFIYVDVISE,soluble
10,GPGSAEKKQKQHFYLTQEMPPRRDPERQRAKVAAATMAPSEHKKASLPPAKLRLNLGPFLPQKKKNRPPKTTEIDWGSEQTPRLQCSWHPQRRNGIVSFPVMMSYPVSCHCAAWGCHITRAYPTMTRQGAHRLASPKVGRPRRSTRKPDQK,soluble
11,GPGSATTVHGETVVNGAKLTVTKNLDLVNSNALIPNTDFTFKIEPDTTVNEDGNKFKGVALNTPMTKVTYTNSDKGGSNTKTAEFDFSEVTFEKPGVYYYKVTEEKIDKVPGVSYDTTSYTVQVHVLWNEEQQKPVATYIVGYKEGSKVPIQFKASLDSTTLTVKKKVSGTGGDRSKDFNFGLTLKANQYYKASEKVMIEKTTKGGQAPVQTEASIDQLYHFTLKDGESIKVTNLPVGVDYVVTEDDYKSEKYTTNVEVSPQDGAVKNIAGNSTEQETSTDKDMTITFTNKKVFE,soluble
12,GPGSGRYREGVEDCTKTLQIDKEFYKAYARRARCHEHLGDHFAAVRDFKKAIEYDSTDRELARELRAAEQNLAKEAEKERDFYFQLGVSRTATEREIKLKYRELSLRWHPDKCIGLDEVERERAEHKFKIISEAYATLVDAGKRREYDAKQDRERFTRAGGFNFSSTYSGGNANDYYRGRHRAGGNGFW,soluble
13,GPGSMAASQLIATRFTDLLAEGNIESALKYIANDVVYNTWLGVVYGKDNVEVFLRDNVRFVHHGRNYNRWKQVQHSLDASLKQFTVNDVSGYDESALDVRSYYDSEGYDSQGYATFERDGTIASHAKFAVFHVKVKETVVLRNNKVVLVNVSKRA,not soluble
14,GPGSMADVADPSSELINELRALVVSGSGLVPLDERKVHTVVENMTDAFRHLESISRNPFADPSQPYYSGAMRFYKAKCLRDKRCVVAYLLWRQSQITKSWWEARDNTISNMLAPCERTFLQDYNDVMVEYMTSFAVPLDLRSFTWRPPSTQQLEVRGLVNHVFVSSITGAVINLYKGKQILLGFEEAESLIQQGVVELVE,not soluble
15,GPGSMAIEVATSTRLQYARMLRSMLEMDRTPLDMMILGFQKIAARSETRQTRQARPVTEEEMNEYIRSRTDWKERVVVRLAWMTASRWSEIAALNPNNFKLKPDGALILDWPVVPKTARADPHRAFRFVRIRGQDAFDIIKLCRTLQENEKLTNITNAQVERALAPWDATAHSIERGALRHAAQIVEKYNLDPHVISQLAKHVNPFDLPQNTV,soluble
16,GPGSMARVTLREDFDDCAADYRILSVSADHFKEITCKVAACKQTGEEMGKINETHHEATTLMTMKGGSQLLLCDDERTFRVRRVEYSNTLLLAEAKAAKMHDTNGIIESDNASDAGEGREHVVVCSSERVFEVKPSVAYNDISQHLLESPLTLKELDTLGTVERSDENVEYIKREELENGTSSSAQRFYTFPQLVALNRSSARELAVILSDMGAVVFNGYVRLLKPALMREALRASLNFFDAYDTMSWEGVMEQLCPSVYPHIVLRAVRAAYGNATASGETPRGMAAFLQVPKVLQALAASVLLADDAEQNTQFTEAELQDKKLSKSVNRRGSLFPELDFDIFYDSWTSSIPSSLFADGTLPSQSDRNALLKFLYGSVIVVRNAEGDSHVGARAVWAPSNVLSTDVSLRTRQLFEIRPGRWEAEELRAYVAPLLDPGVAFDHIIVRYAKEYRVPGRPVMYGNLS,not soluble
17,GPGSMDKTKDSLIAVYDLGGGTFDISVLEIAGGVFEVKATNGDTHLGGEDFDLALSDYILEEFRKTSGIDLSKERMALQRVREAAEKAKCELSSAMETEVNLPFITANADGAQHIQMHISRSKFEGITQRLIERSIAPCKQCMKDAGVELKEINDVVLVGGMTRMPKVVEEVKKFFQKDPFRGVNPDEAVALGAATLGGVLRGKASDLILVDVTPLSLGTSVVGDVFTRMIPKNTTIPCMRSHIFTTVDDGQTAIKFKVFQGEREIASENQIRGEFDLSGIPPAPRGVPQIEVTFDIDANGICHVTAKDKATGKTQNITITANGGLSKEQIEQMIRDSEQHAEADRVKRELVEVRNNAETQLTTAERQLGEWKYVSDAEKENVKTLVAELRKAMENPNVAKDDLAAATDKLQKAVMECGRTEYQQAAAANSGQC,not soluble
18,GPGSMDVSKRPREELHKEQCLSFVKKLWAADTLAMFHYPVSATEVPGYYDVVETPMDLSTIRKNIEQGTYRTDAEVENDVVLMLSNALDFNEKGSQWHDLAKQFKKQYLTLARESGLSFDADQAFIPTKKVRDDESTLRKAEKKGEEKLEDVLQAMEKDKEIPLEQLRAMYARRTTRGKADQQSSDFSSGRGNDDSDEVVSSDEEDTSDSGSGSYDTEEDEDSLDSESASKDDDDDK,soluble
19,GPGSMEATVAPSTGLRQLRRVRRARTQYERLQRPDDIQPGYPIPSIEGWVLFFSNLPETTTQEDIANYLVSFKEGDPDYFGAITDIKIPLNADCFCAGYALVELEDRAGYERAIAELNGTVFPSADKPLVVAPTFLGEEEEQEPQAEEVAPGEKRARD,soluble
20,GPGSMEEDLAYKIIVIGSVSVGKSNITSRFCDGAFYPDLVPTLGMDFKYSSCNTLEKRPRCVRLQVWDTSGQDDFVTLTTAFYRNCQGALLCFDLTNRQSFEDLDQWYERLERYSPVVPPLILVGCKLDLVESHLDEQGEGIVLGSHRQIAKSEADAWARYHSCLCYLETSAKENRNVSQAFQQLATCIASVANPGAKHAGRILGPGGRLLVEEEKQQKRQCCAN,not soluble
21,GPGSMEERKTASGSAYYLPSPLLLSQNQGEERVKFVVVSGGVCSSLGKGVTTSAIGALLHASGYRVCSIKIDPYINIDAGLMSPYEHGEVYVLEDGGEADLDLGNYERWMSVHLTRDHNITTGKMYQKLLTKERAGGFLGKTVQLVPHFTNEVVNHIFKIC,not soluble
22,GPGSMFRAVYSNPAANVPASNCMTDGFPLLPPQRPHSSGSQLMRGCPLPWNDGRTLMYGVPAKNEASLQQVSYSRTLGQRWSSGSADNAAQCAAATHSTVCFASCASGANGSAGGSPVLLQPAMGVPAFVTDNQQLPSMVAQSSPTVSRLTSGMCSTSEGSATFGASTTSATSSTVGNCAATGTAATTNGSMAHTGTSPALPGFQMSVPLPTSAMTAVAAPPQQPQTCFWLSHTTGALTPIRKEDMMTISDTSASTNTHSYAMPPPPTMPSQPSSASATSVPTYLMAPQVSSFGGAMVQAFSELLSGSTAFSVPALPLPQPPRPPKTLNGLQYHLGELYEGFVKRYNPNRGFGFLTATTHVTVVNDGSNSDSATGTPIASLNNTTTAVPTTGEAETPKEYRTPVHLGDIFVHQSSMQMEGFRTLPVGGRVRFCIGYKDGQQTLQAVNVELLPQVLPPNVEMASSP,not soluble
23,GPGSMGKYAAVIIGPAGSGKSTLCGVLAEHYATMGRSTHIANMDPAADLLPYEPSMDIRDLISLEDAMEGKGLGPNGGLVFCMEYLVTAGATWVSQQLGDYADDFIIVDMPGQVEVLSNQPAVPAFVRLLQQEGYYTTVLYLLDALATTADSGKFISGCMFSLSSMVCFDCPFINVLTKCDLLSKDFKENGMLEHFCMCDFDYMDLSRLPPRFRAMSRQIGALLTDFNLVTFRPVDIEDVGYVSNLCSVLDETLQVADEAEVQDHDLGDN,soluble
24,GPGSMGRERMASSWRMPVYRSWQCSTPWSVSLPHPGPALPTLLVRHVCTPVSVCLYTNLSYCSLHAHNSIERLPPPLHAFVPTTHTHTHKHTYICIYACHSPLLRVSTWTKAFCLILRSRTLSTMSTKYLAAYALASLSKASPSQADVEAICKAVHIDVDQATLAFVMESVTGRDVATLIAEGAAKMSAMPAASSGAAAGVTASAAGDAAPAAAAAKKDEPEEEADDDMGFGLFD,not soluble
25,GPGSMIQIIAPRGPLQEMLLLELQGKVVIPPKLLEEERERQRIPNSSEEEVKACSQVTGGKRLREDGECGVNVDTNQVVEVPLGCVVWDSRNETRCSLQIGTVEVSGSYGKRREPLLVLKRCVVGDKTADAEGAVACEYSESSGSQCCLLQEWLQEHPEELTLDATVRGATVPRKVYELVGVVERYIHLNSKPLRRFV,not soluble
